Experiment [1] concerns the target Insulin Receptor. Nature of the experiment: SPR; data not shown. For orientation: SPR reads the build-up and loss of mass on a sensor chip optically.
The target of experiment [2] is CI-MPR receptor. Nature of the experiment: CIMPR binding assay, PPT1 conditioned media, curves starting at 25 nM, bound PPT1 activity; the table prints no units, units of the axes.
Experiment [3] concerns the target CI-MPR receptor. As to the kind of experiment: CIMPR binding assay, PPT1 conditioned media, dilution starting at 50 nM, bound PPT1 activity; the table prints no units, units of the axes.

What is called Kd is the free concentration of one partner at which half of the binding sites on the other are occupied at equilibrium, for simple one-to-one binding. Higher therefore signals lower affinity. “Insulin (from UniProt P01308 25-54; P01308 90-110) (ligand)” returned a Kd in experiment [1] of 8 nM.
As to PPT1 control (enzyme), in experiment [2], the Bmax worked out at 54.5 nmol/mL/h and the Kd amounted to 2.71 nM. Also, in experiment [3], the Bmax was 54.4 nmol/mL/h and the Kd is 2.7 nM.

(Values after patent US20240091321A1.)
